Changes are numbered by the printed parent chain. Names may count otherwise.

In assay [1] the target is T1, EDDF5, central plus C-terminal domains of EDD (aa 889-2799) (human, UniProt O95071 889-2799, binding suggested to be mediated by a phosphorylated threonine residue; residue not identified).
T1 construct: In vitro translated, 35S-labelled; also called carboxyl two-thirds of EDD
Description: GST pull-down of IVT 35S-EDDF5. On the procedure: (§1) To determine the requirement for the chk2 FHA domain in this interaction, the binding between EDD and GSTchk2-N and two mutants was assessed. The R117A mutant contains a substitution within the FHA domain and involves a residue directly required for phosphothreonine binding.

Assay [2] addresses T2, EDD protein, full length (aa 1-2799) (human, UniProt O95071 1-2799, EDD is phosphorylated in cells; the residue involved has not yet been identified).
T2 construct: also called in vitro translated 35S-labelled EDD; endogenous EDD
The assay can be described thus: GST pull-down from MCF-7 nuclear extracts, EDD western blot. On the procedure:
For GST fusion protein pull-down of endogenous or recombinant EDD from cell lysates, 0.5 to 1 mg total protein was incubated with 5 μg GST or GST fusion protein bound to glutathione beads for 1-2 h at 4° C. Beads were washed extensively in 1% Triton X-100 lysis buffer and bound proteins resolved by SDS-PAGE and detected by immunoblotting with EDD antisera (Callaghan et al, Oncogene 17, 3479-3491, 1998). For immunoprecipitation, 10 μl importin α5 antisera (Peter Palese, Mount Sinai School of Medicine) was incubated with 0.5 to 1 mg cell lysate (4° C. for 1 h). Antibody conjugates were captured on protein A sepharose beads (4° C. for 1 h) and washed extensively in lysis buffer. Bound proteins were resolved by SDS-PAGE followed by immunoblotting with EDD antisera.
as §1

Assay [3] deals with T3, EDDF3, carboxy domain of EDD (aa 1877-2799) (human, UniProt O95071 1877-2799).
T3 construct: In vitro translated, 35S-labelled; also called carboxy third; carboxy terminal region of EDD
T3 sequence: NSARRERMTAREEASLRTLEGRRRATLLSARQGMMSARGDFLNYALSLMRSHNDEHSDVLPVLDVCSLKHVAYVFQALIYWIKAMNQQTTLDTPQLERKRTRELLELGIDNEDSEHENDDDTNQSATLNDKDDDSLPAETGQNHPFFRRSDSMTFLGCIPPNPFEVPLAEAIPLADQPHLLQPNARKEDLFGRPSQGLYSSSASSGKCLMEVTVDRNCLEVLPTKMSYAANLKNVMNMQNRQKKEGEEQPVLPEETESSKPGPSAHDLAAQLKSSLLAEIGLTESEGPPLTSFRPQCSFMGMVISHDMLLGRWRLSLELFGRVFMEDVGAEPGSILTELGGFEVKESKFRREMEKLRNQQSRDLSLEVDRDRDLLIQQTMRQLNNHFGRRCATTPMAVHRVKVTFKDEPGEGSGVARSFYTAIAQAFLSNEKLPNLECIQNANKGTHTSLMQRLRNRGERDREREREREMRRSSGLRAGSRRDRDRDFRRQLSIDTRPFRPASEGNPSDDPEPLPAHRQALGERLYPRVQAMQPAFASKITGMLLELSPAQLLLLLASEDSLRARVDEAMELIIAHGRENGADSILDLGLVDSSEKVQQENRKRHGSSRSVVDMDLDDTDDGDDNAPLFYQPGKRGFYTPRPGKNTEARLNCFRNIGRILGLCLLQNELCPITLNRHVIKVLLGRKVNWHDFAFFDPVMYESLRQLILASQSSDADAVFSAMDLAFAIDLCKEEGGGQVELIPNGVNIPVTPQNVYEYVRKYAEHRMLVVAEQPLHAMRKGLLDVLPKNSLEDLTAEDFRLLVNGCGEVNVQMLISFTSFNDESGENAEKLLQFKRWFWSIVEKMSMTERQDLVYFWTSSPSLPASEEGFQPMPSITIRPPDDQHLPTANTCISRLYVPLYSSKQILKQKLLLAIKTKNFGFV
Description: GSTchk2-N pull-down of IVT EDD deletion mutants.

The target in assay [4] is T4, EDDF2, central domain of EDD (aa 889-1877) (human, UniProt O95071 889-1877).
T4 construct: In vitro translated, 35S-labelled; also called central third; central region of EDD
T4 sequence: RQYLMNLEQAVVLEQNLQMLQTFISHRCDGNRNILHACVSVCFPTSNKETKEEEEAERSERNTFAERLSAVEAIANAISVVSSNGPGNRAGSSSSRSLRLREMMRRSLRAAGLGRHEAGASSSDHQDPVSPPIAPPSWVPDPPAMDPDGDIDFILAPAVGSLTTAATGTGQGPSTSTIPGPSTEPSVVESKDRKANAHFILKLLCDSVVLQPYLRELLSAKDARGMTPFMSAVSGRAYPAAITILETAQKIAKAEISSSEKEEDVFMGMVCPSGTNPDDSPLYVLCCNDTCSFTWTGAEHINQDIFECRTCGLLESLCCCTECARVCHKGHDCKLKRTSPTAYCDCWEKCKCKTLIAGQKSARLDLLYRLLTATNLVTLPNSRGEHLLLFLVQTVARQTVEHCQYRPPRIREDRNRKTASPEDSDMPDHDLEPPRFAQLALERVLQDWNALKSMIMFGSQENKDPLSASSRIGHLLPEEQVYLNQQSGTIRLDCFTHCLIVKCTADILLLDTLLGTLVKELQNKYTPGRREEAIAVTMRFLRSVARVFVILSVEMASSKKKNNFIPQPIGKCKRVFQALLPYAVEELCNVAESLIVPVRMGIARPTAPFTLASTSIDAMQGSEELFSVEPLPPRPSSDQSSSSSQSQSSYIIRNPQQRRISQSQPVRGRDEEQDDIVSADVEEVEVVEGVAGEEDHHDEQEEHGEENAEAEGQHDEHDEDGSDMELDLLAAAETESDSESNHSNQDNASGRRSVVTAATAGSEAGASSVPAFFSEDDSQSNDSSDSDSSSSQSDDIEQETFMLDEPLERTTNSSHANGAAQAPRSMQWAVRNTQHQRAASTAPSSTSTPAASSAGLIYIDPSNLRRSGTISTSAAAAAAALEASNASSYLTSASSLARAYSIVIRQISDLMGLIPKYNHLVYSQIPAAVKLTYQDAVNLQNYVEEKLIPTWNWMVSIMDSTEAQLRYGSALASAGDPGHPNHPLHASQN
Description: GSTchk2-N pull-down of IVT EDD deletion mutants.

B1: GSTchk2-N derivative containing an R117A substitution (other)
chain: MSRESDVEAQQSHGSSACSQPHGSVTQSQGSSSQSQGISSSSTSTMPNSSQSSHSSSGTLSSLETVSTQELYSIPEDQEPEDQEPEEPTPAPWARLWALQDGFANLECVNDNYWFGADKSCEYCFDEPLLKRTDKYRTYSKKHFRIFREVGPKNSYIAYIEDHSGNGTFVNTELVGKGKRRPLNNNSEIALSLSRNKVFVFFDLTVDDQSVYPKALRDEYIMSKT
notes: also called GSTchk2-N R117A; R117A mutant; not shown: GST fusion partner at the N end and any vector linker
B1: the binding result in assay [1] and in assay [2] was “no binding” each time.

B2: GSTchk2-N (GST fused to chk2 aa 1-225) (other)
chain: B1 chain with A117R
notes: contains the SQ/TQ and FHA domains; also called GSTCHK2-N (WT); chk2 N-terminus; not shown: glutathione S-transferase (GST) fusion partner
On to B2, for which the binding result in assay [3] and in assay [4] was “no binding” in each case.

Values taken from US20060147922A1 (published 2006).
